# Where a chain is given by its changes, count along the chain named. Names may count otherwise. “And” between values parts separate entries of the source, which are not always exact repeats. Equal entries are not always repeated. Where two headings read alike, the source gives them in different places.
# B1: M. jannaschii Adriase: Methanocaldococcus jannaschii Adriase (MJ_0548) with C-terminal His6-tag (protein)
# chain: SLIICYYGKNGAVIGGDRRQIFFRGSEENRKILEEKLYSGEIKSEEELYKLAEKLNIKIIIEDDREKVRKISDSVVCGEVRSLGIDAKRRRVYATKGKCAIVDILNDTVTNQTIKEGFGIVVLGNRFLKKKAEEELKRTAKLFPMMPIQQIEDAIKEIFEKLKWHPTVSKEYDIYSVNKYEKNFEEVIKKDIESLFKYREQLRKQLIDFGKVMSIVNKIVKNGEIGVIKDGKLHLYDDYIAIDKIDPNPKVFKVVDVEGNFKDGDIVVIENGDMKIKGTNEKVTTKYIIIHKGSHHHHHH
# modifications: C-terminal His6-tag; M. jannaschii Adriase with C-terminal His-tag
# B2: M. jannaschii Adriase^S1A (protein)
# chain: B1 chain with S1A
# modifications: C-terminal His-tag; M. jannaschii Adriase S1A mutant with C-terminal His-tag
# B3: 428-57: M. jannaschii Adriase without the insertion element that distinguishes Adriase from proteasome subunits, C-terminal His6 (protein)
# chain: SLIICYYGKNGAVIGGDRRQIFFRGSGKIIIEDDREKVRKISDSVVCGEVRSLGIDAKRRRVYATKGKCAIVDILNDTVTNQTIKEGFGIVVLGNRFLKKKAEEELKRTAKLFPMMPIQQIEDAIKEIFEKLKWHPTVSKEYDIYSVNKYEKNFEEVIKKDIESLFKYREQLRKQLIDFGKVMSIVNKIVKNGEIGVIKDGKLHLYDDYIAIDKIDPNPKVFKVVDVEGNFKDGDIVVIENGDMKIKGTNEKVTTKYIIIHKGSHHHHHH
# modifications: C-terminal His6; M. jannaschii Adriase 28-57, C-terminal His6
# B4: SrtA: Staphylococcus aureus Sortase A without N-terminal membrane anchor (residues 1-59), N-terminal His6-tag (protein, listed as Staphylococcus aureus)
# chain: MRGSHHHHHHGSQAKPQIPKDKSKVAGYIEIPDADIKEPVYPGPATPEQLNRGVSFAEENESLDDQNISIAGHTFIDRPNYQFTNLKAAKKGSMVYFKVGNETRKYKMTSIRDVKPTDVEVLDEQKGKDKQLTLITCDDYNEKTGVWEKRKIFVATEVK
# modifications: N-terminal His6-tag; His6-SrtA 1-59
# notes: Staphylococcus aureus Sortase A without N-terminal membrane anchor (residues 1-59), N-terminal His6-tag
# B5: M. jannaschii Adriase^ΔNTN (protein, listed as Methanosarcina mazei)
# chain: MEQLRKQLIDFGKVMSIVNKIVKNGEIGVIKDGKLHLYDDYIAIDKIDPNPKVFKVVDVEGNFKDGDIVVIENGDMKIKGTNEKVTTKYIIIHKGSHHHHHH
# modifications: Methanosarcina mazei Go1; Adriase NTN with C-terminal His-tag
# B6: M. mazei Adriase: Methanosarcina mazei Adriase (MM_2909), archaeal peptide recombinase, C-terminal His6-tag; Strep-, Myc-, HA-tagged versions used as pulldown bait (protein)
# chain: TLVIAFIGKNGAVMAGDMREITFEGEKPDREKLEKELYSGSIVTDEEMQKKAEEFGVKITVADCKEKVSERNGVLVGEVSSAEGGVVKKRRLYASAGNFAIAELINTEMTLTSQGKGSNFIAFGNEFTKQVANKCFKDNWTKKSNLQDAVKILILCMETVARKTASVSKQFMIVQTASNADVLKVVEKDRNCGSHHHHHH
# modifications: C-terminal His6-tag; M. mazei Adriase with C-terminal His-tag
# notes: Methanosarcina mazei Adriase (MM_2909), archaeal peptide recombinase, C-terminal His6-tag; Strep-, Myc-, HA-tagged versions used as pulldown bait
# B7: SrtA5* (protein, listed as Staphylococcus aureus)
# chain: MQAKPQIPKDKSKVAGYIEIPDADIKEPVYPGPATREQLNRGVSFAEENESLDDQNISIAGHTFIDRPNYQFTNLKAAKKGSMVYFKVGNETRKYKMTSIRNVKPTAVEVLDEQKGKDKQLTLITCDDYNEETGVWETRKIFVATEVKLEHHHHHH
# modifications: C-terminal His-tag; SrtA5* delta 1-59 with C-terminal His-tag
# B8: Adriase^ΔOB S1A (protein)
# chain: ALIICYYGKNGAVIGGDRRQIFFRGSEENRKILEEKLYSGEIKSEEELYKLAEKLNIKIIIEDDREKVRKISDSVVCGEVRSLGIDAKRRRVYATKGKCAIVDILNDTVTNQTIKEGFGIVVLGNRFLKKKAEEELKRTAKLFPMMPIQQIEDAIKEIFEKLKWHPTVSKEYDIYSVNKYEKNFEEVIKKDIESLFKYREQGSHHHHHH
# B9: Adriase^ΔOB: M. jannaschii Adriase without OB-like domain (Δ203-293), C-terminal His6-tag (protein)
# chain: B8 chain with A1S
# modifications: C-terminal His6-tag; M. jannaschii Adriase without OB, with C-terminal His-tag
# How the values were obtained:
# [1] = system: (15)KDPGA(10) and PGA(10F) substrates; details: FIG. 14
# Protocol: Specifically, 15 μM of (15)KDPGA(10)(SEQ ID NO: 419) and 15 μM of fluorophore-coupled PGA(10F)(SEQ ID NO: 374) substrates were incubated optimized M. jannaschii Adriase buffer (20 mM MES-NaOH pH 5.8, 150 mM NaCl, 100 mM KCl, 5 mM TCEP-HCl) for 8 min at 80° C. with either various Adriase concentrations. The assay was performed with either 7 nM, 21 nM, 62 nM, 185 nM, 556 nM, 1666 nM, 5000 nM or 15000 nM N-terminally modified Adriase (N-His, SEQ ID NO: 450) or 0 nM, 7 nM, 21 nM or 62 nM unmodified Adriase (SEQ ID NO: 385) and stopped by addition of 2% SDS. Samples were then separated on 12% polyacrylamide gels (Thermo) and fluorescent products visualized by UV light.
# [2] = target: M. jannaschii MtrA^Δ194-245 (Methanocaldococcus jannaschii, UniProt Q58261); details: 1:1 molar mixture, 200 μM, Superdex S200, light scattering
# Chain of M. jannaschii MtrA^Δ194-245 (Q58261 1-189, stated change not applied): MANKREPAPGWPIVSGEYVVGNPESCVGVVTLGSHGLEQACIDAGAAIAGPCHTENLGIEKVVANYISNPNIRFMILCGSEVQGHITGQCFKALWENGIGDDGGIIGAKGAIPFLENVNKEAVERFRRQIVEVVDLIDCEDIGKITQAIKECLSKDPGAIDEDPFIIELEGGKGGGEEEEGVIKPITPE
# Protocol: Data analysis was carried out with ASTRA v7.3.0.18 software (Wyatt).
# For this purpose, size exclusion chromatography using 50 μl 200 μM M. jannaschii Adriase^ΔOB (SEQ ID NO: 132), M. jannaschii MtrA^Δ194-245 (SEQ ID NO:420) or a 1:1 molar mixture of the Adriase-MtrA pair was analyzed using a Superdex S200 10/300 GL gel size-exclusion column (20 mM HEPES-NaOH pH 7.5, 50 mM NaCl, 100 mM KCl) coupled to a miniDAWN Tristar Laser photometer (Wyatt).
# To investigate, whether the OB fold alone is sufficient to bind Adriase in the above experimental set-up, we repeated the same analysis using M. jannaschii Adriase^ΔNTN (SEQ ID NO: 519). Specifically, size exclusion chromatography using 50 μl 200 μM M. jannaschii Adriase^ΔNTN (SEQ ID NO: 519), M. jannaschii MtrA^Δ194-245 (SEQ ID NO:420) or a 1:1 molar mixture of the Adriase-MtrA pair was analyzed using a Superdex S200 10/300 GL gel size-exclusion column (20 mM HEPES-NaOH pH 7.5, 50 mM NaCl, 100 mM KCl) coupled to a miniDAWN Tristar Laser photometer (Wyatt).
# [3] = system: (15)KDPGA(10) and PGA(10F) substrates; details: 100 nM enzyme, 15 μM substrates, 8 min, 85° C. (M. jannaschii variants) or 50° C. (M. mazei)
# Protocol: In a second set of experiments, the ligase activity of Adriase variants was tested with (15)KDPGA(10)(SEQ ID NO: 419) and PGA(10F)(SEQ ID NO:414) substrates. […] Furthermore, M. mazei Adriase (SEQ ID NO: 380) was tested for ligase activity with the same M. jannaschii peptide substrates to assess whether variety within the recognition motif is tolerated. The read out for Adriase activity was the detection of fluorescently labeled ligation product (10)KDPGA(10F)(SEQ ID NO: 418).
# The reaction was performed in optimized M. jannaschii Adriase buffer (20 mM MES-NaOH pH 5.8, 150 mM NaCl, 100 mM KCl, 5 mM TCEP-HCl) for 8 min at 85° C. when M. jannaschii derived Adriase variants were used and at 50° C. in optimized M. mazei Adriase buffer (50 mM acetic acid, 50 mM MES, 50 mM HEPES, 100 mM NaCl, 50 mM KCl, 5 mM TCEP, pH 7.0) when M. mazei Adriase was used and stopped by addition of 2% SDS. Samples were then separated on 12% polyacrylamide gels (Thermo) and fluorescent products visualized by UV light.
# [4] = system: Ub-GGSLPETGGGHHHHHH and GGG-Ub; experiment: Comparison with Sortase: SrtA / SrtA5* catalyzed protein-protein ligation; details: 3.13 μM each substrate, enzyme:substrate ratio 1:1, 37° C.
# Protocol: (§1) (SEQ ID NO: 536) and GGG-Ub (SEQ ID NO: 666) were recorded. The Adriase assays were conducted with 3.13 μM and 100 μM substrate concentration and 0.0025 molar equivalents Adriase (SEQ ID NO: 380) in reaction buffer (50 mM acetic acid, 50 mM MES, 50 mM HEPES, 100 mM NaCl, 50 mM KCl, 5 mM TCEP, pH 7.0) at 50° C. The SrtA5* and SrtA assays were conducted with 3.13 μM and 100 μM substrate concentration and either 1 or 0.1 molar equivalents SrtA5* or SrtA (SEQ ID NO: 535 and 662) in Sortase buffer (50 mM Tris-HCl pH 7.5, 150 mM NaCl, 10 mM CaCl2) at 37° C. At various time points (0 s, 28 s, 55 s, 88 s, 126 s, 171 s, 225 s, 295 s, 393 s, 554 s, 1125 s, 1670 s and 2250 s), an aliquot of the reaction was mixed with 2% SDS. Samples were then separated on 12% polyacrylamide gels (Thermo) and stained with Coomassie blue. The band intensities of educt and product bands were quantified using ImageJ v1.52a, assuming that all ubiquitin molecules bind the coomassie dye in a similar manner. The results were used to plot the time courses for each experiment.
# [5] = target: LPETG (primary) and GGG (secondary) substrates (Staphylococcus aureus, UniProt Q2FV99); details: Frankel (2005); cited from earlier work
# Chain of LPETG (primary) and GGG (secondary) substrates (Staphylococcus aureus, UniProt Q2FV99) (Q2FV99 60-206): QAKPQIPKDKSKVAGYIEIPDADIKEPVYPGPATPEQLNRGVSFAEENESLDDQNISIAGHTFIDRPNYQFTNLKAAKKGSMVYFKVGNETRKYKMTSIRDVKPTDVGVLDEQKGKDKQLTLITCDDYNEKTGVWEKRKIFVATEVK
# [6] = system: LPETG (primary) and GGG (secondary) substrates; details: cited from earlier work
# [7] = system: (5)KDPGA(10F) and PGA(10) substrates; experiment: M. mazei Adriase peptide-peptide ligation time courses and Michaelis-Menten plot; assay type: biochemical; details: 50° C.
# Source text: The band intensity of the respective fluorescently labeled PGA(10F) peptides (SEQ ID NO: 455), which were released by the ligation reactions were quantified using ImageJ v1.50i and subtracted from background signal in control reactions without PGA(10) peptides.
# [8] = system: Ub-(5)KDPGA(15) and PGA(15)-Ub; experiment: Comparison with Sortase: Adriase-catalyzed protein-protein ligation
# Protocol: as §1
# [9] = system: Ub-(5)KDPGA(15)-Strep and PGA(10); experiment: Test for hydrolase activity with protein substrate
# Protocol: To investigate, whether this characteristic also holds true with protein substrates, the above experiment was repeated with Ub-(5)KDPGA(15)-Strep substrate (SEQ ID NO: 522). Specifically, 25 μM Ub-(5)KDPGA(15)-Strep and 25 μM PGA(10)(SEQ ID NO: 454) were incubated with either 25 nM or 25 μM M. mazei Adriase (SEQ ID NO: 380) in optimized buffer (50 mM acetic acid, 50 mM MES, 50 mM HEPES, 100 mM NaCl, 50 mM KCl, 5 mM TCEP, pH 7.0) at 50° C. After 140 s, 320 s, 575 s, 1002 s, 30 min or 90 min, aliquots were removed and mixed with 2% SDS to stop the reaction.
# [10] = system: Ub-(5)KDPGA(15) and PGA(15)-Ub substrates; experiment: M. mazei Adriase protein-protein ligation kinetics
# Protocol: Specifically, different concentrations (0.39 μM, 0.78 μM, 1.56 μM, 3.13 μM, 6.25 μM, 12.5, 25, 50 or 100 μM; three independent experiments per concentration) of Ub-(5)KDPGA(15)(SEQ ID NO: 520) and PGA(15)-Ub (SEQ ID NO: 521) substrates were incubated with 0.0025 molar equivalents of M. mazei Adriase (SEQ ID NO: 380) in reaction buffer (50 mM acetic acid, 50 mM MES, 50 mM HEPES, 100 mM NaCl, 50 mM KCl, 5 mM TCEP, pH 7.0) at 50° C. At various time points (0 s, 28 s, 55 s, 88 s, 126 s, 171 s, 225 s, 295 s, 393 s, 554 s, 1125 s, 1670 s and 2250 s), an aliquot of the reaction was mixed with 2% SDS. Samples were then separated on 12% polyacrylamide gels (Thermo) and stained with Coomassie blue (FIG. 21A). The band intensities of educt and product bands were quantified using ImageJ v1.52a, assuming that all ubiquitin molecules bind the coomassie dye in a similar manner. The results were used to plot the time courses for each experiment (FIG. 21B).
# the data fit for each time course allowed the determination of the maximum rate parameter for each concentration. These maximum rates were then used in a Michaelis-Menten plot (FIG. 21C) to approximate kinetic measures.
# [11] = system: Ub-(5)KDPGA(10) and PGA(10)-sdAb/CyP/GST; experiment: Ligation of unrelated protein substrates (sdAb, CyP, GST); assay type: biochemical, M. mazei; details: 0.9 μM enzyme, 3.7 μM substrates, 37° C., 10 min
molecule,measurement,setting,value
B1,rate of product generation compared to N-terminally modified Adriase,[1],~ 200 ×
B2,complex formation with MtrA,[2],form a heterodimer
same,ligase activity (fluorescent ligation product),[3],no ligation product is observed
B3,ligase activity (fluorescent ligation product),[3],abolishes ligase activity
B4,ligase activity at low substrate concentrations,[4],only spurious ligase activity
same,Kcat Ligation/Kcat Hydrolysis,[5],≈ 3.3
same,Km,"[6]; primary substrate used in excess, read-out: KM for the secondary substrate",0.196 mM
same,Km,"[6]; secondary substrate used in excess, read-out: KM for the primary substrate",7.33 mM
B5,complex formation with MtrA,[2],no complex is formed
B6,maximum rate,"[7]; 0.001 molar equivalents enzyme, pH 7.0, Michaelis-Menten model",~ 2.25 ligations per enzyme and second
same,substrate concentration at half maximal reaction speed,"[7]; each substrate, pH 7.0",~ 9 μM
same,ligase activity (fluorescent ligation product),[3],showed activity
same,substrates ligated (on a molar basis),"[8]; 3.13 μM each substrate, enzyme:substrate ratio 1:400",~ 50%
same,yield compared to Sortase,[8]; 100 μM substrates,~ 1.7 ×
same,ligase activity / ligation rate compared to SrtA5*,"[8]; 100 μM substrates, Adriase 0.0025 molar equivalents, 50° C., SrtA5* 37° C.",~ 40 × and > 40 ×
same,ligase activity / ligation rate compared to SrtA,"[8]; 100 μM substrates, Adriase 0.0025 molar equivalents, 50° C., SrtA 37° C.",~ 4000 × and > 4000 ×
same,ligation yield,[8]; compared to ~30% in the Sortase reactions,~ 50%
same,product formation,"[9]; enzyme:substrate 1:1000 (1×), 30 minutes",~ 50%
same,amount of ligation product,"[9]; prolonged incubation (90 min), 1000× increased Adriase concentration",~ 50%
same,ligation rate coefficient,[10]; 25 μM substrate concentration,0.74 ± 0.05 s⁻¹
same,ligation rate coefficient,[10]; 50 μM substrate concentration,0.88 ± 0.07 s⁻¹
same,ligation rate coefficient,[10]; 100 μM substrate concentration,0.90 ± 0.14 s⁻¹
same,substrate concentration at half-maximum rate,"[10]; each substrate, equimolar, protein-protein ligation, 50° C., pH 7.0",2.2 µM
same,maximum rate,"[10]; protein-protein ligation, 0.0025 molar equivalents enzyme, 50° C., pH 7.0",0.92 ligations per enzyme and second
same,ligation of protein pairs,[11],efficiently ligates all three protein pairs
B7,ligase activity at low substrate concentrations,[4],only spurious ligase activity
same,increased rates compared to the wild type enzyme,[6]; Chen (2011),up to 120 ×
same,Km,"[6]; Chen (2011), read-out: KM GGG",4.7 mM
same,Km,"[6]; Chen (2011), read-out: KM LPETG",0.17 mM
B8,complex formation with MtrA,[2],decreased affinity
B9,ligase activity (fluorescent ligation product),[3],still catalytically active
